Experimental data reported in the DeepSol protein solubility set.

Test: soluble on expression in E. coli; label from the status in PepcDB or PDB records

| Sequence | soluble on expression in E. coli |
| --- | --- |
| MSLPAKTLVQAAANSGLRAVSVRHSSQAPKVALLGAAGGIGQPLGLLLKQDPLVAHLALYDVVNTPGVAADLSHIDSNAKVTAHTGPKELYAAVENADVIVIPAGVPRKPGMTRDDLFNTNAGIVRDLAAVIAKASPKALIAIITNPVNSTVPIASEVLKKAGVYDPKRVFGVTTLDVVRSQAFVSELKGHDASKTVVPVVGGHAGITIIPLLSQVKPSTKFSEEEISKLTPRIQDAGTEVVNAKAGAGSATLSMALAGARFANALVRGIKGEKNVQCAYVASDAVKGVEYFSTPVELGPNGVEKILGVGKVSAYEQKLIDASVPELNKNIAKGVAFVKGN | not soluble |
| MEVKEVELELSSEATFLSKTSIGEITAGEKGLNPMELLLVSIGSCSGVDVYHILKKKRQEVKDIKIFLKGKRREKHPKIYEEIEIKYVAVGKVEEKALEQAVKLSTEKYCSVLAMVKPSTNLKISWEVKWEE | soluble |
| MAVGEVMRMEIPAGGDLTVTTPELHVLAVDDSIVDRKVIERLLRISSCKVTTVESGTRALQYLGLDGGKGASNLKDLKVNLIVTDYSMPGLSGYDLLKKIKESSAFREVPVVIMSSENILPRIQECLKEGAEEFLLKPVKLADVKRIKQLIMRNEAEECKILSHSNKRKLQEDSDTSSSSHDDTSIKDSSCSKRMKSESENLFSLL | not soluble |
| MGSDKIHHHHHHMNGGKPGVERDRREALLALAAALRPELHRYCARLMGSVIDGEDVVQDTFARAFVALDELCAVPQLRPWLFRIAHNRALDLLRSRATRVAEPIEAALEIVDDSKADAVETLMRKEAIETAVSRFAELPVVQRSVIILKDVLDEPLAEIAALLGISVDAVKAHLSRGRARLREINARTDPFPDARIASANVVRYINLFNQRDWDGLRALLAEDVRLQQSMHPPRSGAADVGMFFTIYAKSEGLWLKPAWVEGREVIAVFEHRAAPKPTHFMWLEWREGRISFIRDYRYVGYVADDARLVLASDVRSSGHGTKL | not soluble |
| MLDKLDAALRFQQEALNLRAQRQEVLAANIANADTPGYQARDIDFASELKKVMQRGRDATSVVALTMTSTQHIPAQALTPPTAELQYRIPDQPSLDGNTVDMDRERTQFADNSLQYQMSLSALSGQIKGMMNVLQSGN | not soluble |
| MKEKVFFKTFGCRTNIYDTELLKSYVKDYEIINDENKAQIIVVNSCTVTNGADSGIKSYVNTMQKKGIKVILTGCGAVSKGKELLDKKQVFGVLGASNKDKINEFLGAKTSFYELGNLNFIDKDIVCEYENHTKAFVKIQEGCDFACSYCIIPSVRGKSRSVDEKALLKQVEILGANGYSEIVLTGTNIGSYGLKNGTTLGKLLQKMGQILGIKRIRLGSLEPAQLDESFLEILDEAWLERHLHIALQHTSEKMLRIMRRRSHTDNDLKLFNTIASKGYALGTDFIVAHPGESEELWQEALRNFKEFPLTHIHAFIFSPRNNTHSATMKDVINGTLAKERLNTLKSIVEKNNYEFRKKNQVSLEVLVENQKDGFFEGYDQFFNKIKIKSDKDIAKEWIVISEYEVQEKSNFTNLKGLEHHHHHH | soluble |
| MHRRSIINHSRPDKLKRGMHVEIASNVINDLQFFDQQIRWAKADLVQQVSRNRLNRARTYRGYLNQCLPHELVADIQRAVIKSINAISLINLEHHHHHH | not soluble |
| MSYNNLLAIEKPVRYTGDEIGSRPKEDAELRFVLAFPDVYEVGMSHLGLQILYDILNREEGIAAERAYTPWPDREAQLRSLGESLATLESQTSLARADIIGFTLQYELSYTNILTMLDLAGIPFRAAERGDEFPLVIAGGPCACNPEPLADFLDAVLLGDGEEAVVEIAAACLERKRNGESKQWLLERLASIDGVYVPSFFEPRYHDDGTIDAIIPLRPAHGRVRRRFLSDLDTAPYPTAPVVPFLKTIHDRVSIEIGRGCTRGCRFCQAGYLYRPVRERSPETILKLVEETLRNTGYDEVSLLSLSTGDYGCLTPLLRELMVRYAHERIAVALPSLRVGSLSQELVEEIRKVRKTGFTLAPEAGSERLRTIINKGISEEDLLRNAFEAFSNGWRVIKLYFMIGLPGETEEDLVGIADLARKVKQEGKRAGSGGEVNVSVSTFVPKPHTPFQWEPQITTEETVAKQRFLRDELKKRKLGLKWHDAPLSFMEGVFARGDRRLGAVLAKAWELGCRFDGWGDRLKSTTWHEAFAVCGIDPAFYHRRRGIDETLPWDHLDFGVTRAFLRQELEKAWAGEPTGDCRTGRCTGCGICDFDRIAMRTTDPAWQKGLEHHHHHH | not soluble |
| MKENFLKQKRMEKNLTLEQVGNFVGVGKSTVRKWETGMIENMGRDKIVALSKILDVSPLEILGIPETEETPFVVPTNIMNIYKQLTTENQEAVFRYAQKKLTEQNYF | not soluble |
| MCIAIPGKMTAIVDENTATIDMGGICRDVNMALMGGAEESMIGKHFLVHVGYAISEISEEESEETMRLLKIMAGLEEIDSFENESQ | not soluble |
| MSTPYVSVIGKITGIHKKEYESDGTTKSVYQGYIEDDTARIRISSFGKQLQDSDVVRIDNARVAQFNGYLSLSVGDSSRIESVNVNIPLEHHHHHH | not soluble |
| GAKPRNLNVSFQGCGMDSLSVRAMDTDTLTQVKEKILEAFCKNVPYSQWPRAEDVDLEWFASSTQSYILRDLDDTSVVEDGRKKLNTLAHYKIPEGASLAMSLIDKKDNTLGRVKDLDTEKYFHLVL | soluble |
| MNNIRLLNQNDLDSYIELMKFGHHNYEWDRYYLENVSIDRLKTILSNHTDYWNIFGAFEDDELVATCTLKQMNYVGKCHKAILENNFVKNNDEIVNRELINHIIQYAKEQNIETLMIAIASNNISAKVFFSSIGFENLAFEKNASKIGNEYFDENWLIYSTTE | not soluble |
| MAHHHHHHMAPSELHKLSYWEEVYQGEKENYEEANIQPEEWFEENCDKIINWMSNHFSEEEKKEQVAILDVGCGNGLFLHKLHQRGFGNLCGFDFSASAIELAKKLFVGCGGEGEEDSRINRGEEPTDVYVQVLDIYNIEDEIKENSKLKKKYKLINDKGTFDIFFMNDKAQEYFKHVSFFFQVDTIFCLTSCNACKEELLSIVNHFNETNGKFQLTLFDEIRYESITFGGVKGQIITTLIFACS | soluble |
| MSLSDINNMAYGISDMLGSIDNLAMFDLVVPHFRGKENECLFGMFGRATTTLQGGKIAKHVQEIFAETLTAHLHKLEPGEEPSEALRRTFLWGDRKAFEFFSGKLQLEKERKPSWTSFASFDSMFRGWTPGVNSVLRTGASGAVVYLVDKVLHVGSIGDTLVVLSRKGDAELLSKRHDPTDREESARIRKAEAWVSTKGFVNDDKDLDISRAFGYWHECPAVNAAPEIRTRRLQESDEFVIIGNHALWQFCSYQTAVDIARTERDDPMIAAQKLRDFAISYGAEGNVMVMVVNVSDLFLGKEGHHHHHH | not soluble |
| MTYYNVGKIVNTQGLQGELRVLSVTDFADERFKKKSVLALFDDKDNYIMDVEVASHRKHKNFDIVKFKGLYHINDVEKYKGCSLKIAEENLTDLDDGEFYYHEIIGLDVYEGNTLIGQVKEILQPGANDVWVVKRKGKKDLLLPYIPPVVLDVDVAAGRIEVELMEGLDDEDLEHHHHHH | soluble |
| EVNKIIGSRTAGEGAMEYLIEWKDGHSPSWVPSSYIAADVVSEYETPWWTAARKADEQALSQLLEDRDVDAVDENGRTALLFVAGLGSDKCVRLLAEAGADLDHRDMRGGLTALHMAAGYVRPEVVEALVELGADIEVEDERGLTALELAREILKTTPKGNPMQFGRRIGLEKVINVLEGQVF | soluble |
| MGSDKIHHHHHHMVKSNICGGSTMTQTLPKLVTFEQFIEWYPSNGARYELHKGVIVEMPPPSGEHENVVGFLAAQITLQFLQMGLPFCIPKTAFVKIQSNNSTYSPDILLLNHDNLVNEPLWSKQSTVIQAASIPLAVEVVSQCVARVPRVEATDEPVRVSTNWRDDYYDKFRDYEEMGIPEYWIVDYAAIGGKRFTGNPKQKTITICELVEGDYQMTVFRENNFVVSPLFPQLNLTAQQIFDSAL | not soluble |
| MILIRLEPGMDLMEEMRAAFSEGVVVTGIGSLHRVRIRTADESELTVEGPLEILSLQGTISPDGVHIHIAVADSEGRVTGGHLRGDSPVRTTAEIAVIPYQGVLRRVMDRRTGYRELLVLE | not soluble |
| MAHHHHHHMNNSVTRKIEKQILEALKDKENDIDKEIRKYEILERKVYDENDEELEFIKNKRLEELKNKHKEKLTLLKKGHGTYKEVLSEKEFFEICKSSKNVCCHFYRNTTWRCQYMDKKLIDLSSKYWNINFIKINAEKSPFLCERLKIWCIPTVMLIQNGKTEHSIVGFDELGGDNFSEQTLVNVLRKWRLIETKENDD | not soluble |
| SKSKEPLLNGFFWNRTSIYYNCQVIIEVTEMLHNASLLIDDIEDSSKLRRGFPVAHSIYGIPSVINSANYVYFLGLEKVLMLEHPEAVRVFTRQLLELHRGQGLDIHWRDTYTCPSEAEYRAMVLQKTGGLFGLAVGLMQLFSDWKRDLKPLLDTLGLYFQIRDDYANLNSKQYSANKSFCEDLTEGKFSFPTIHAIWSHPESTQVQNILRRRTENLDIKRYCVDYLEKVGSFAYTRQTLLDLEVEAYRLIKELGGNPELEALVEHLSRMYKEPEGGATVSQSK | soluble |
| MAKYQTIEAAVRSEFGKGSARRARVAGQIPAVVYGADVESNLHVTIDHRTFAALVRQEGVNAVLELDIEGQKQLTMIKHIDQNVLTFHIDHLDLLAI | not soluble |
| MLLNEKDFKNEGVKIAALIMAESARTAPKSKGEDTIEIVYVDGEEMEKIAAKMEEMAEGGDKDFIRDAESVRKSQAILLIGAKGDRTVGVNCQACGFESCSEFKKADRKGENFVGPNCAFRMIDLGIALGSAVKVSAMLGIDTRIMYRIGIAAKKLGMIDADVVMGVPLSALGKSPYFDRAPKK | not soluble |
| NSSGVNRVVGNNLDDLALPKLAKDQTNPMTMEELTTRFLRSDSATFDGTVVEVQGFASAAADGTWRLSRYKIYCCAADAMAYTATLETSTSMSSDQWYRVRGVVRVSSAHNPQFPMIEVHNLEAIDTPTEPYL | not soluble |
| MDVSLESLVNSLQATRSTLLSEIEMLNDTEVNVKPRRDKWSIIQILHHLHLVEQSVTSALVYALQKNERNMTPFKDLQLTLDRTHKREAPQQMQPTETLMKKQQGIQLLEHSRQELLHALHSVIDEKDLFENGLKHPVFNDLNLYQWVQFLDLHEQRHLTQLKEAKHAILQR | not soluble |
| MGSDKIHHHHHHADDDKPIQVSQMPQKAQQFIKQHFAGSNIAMAKVESDFLQKSYDVIFTDGNKVEFDKKGNWTEVNCKFSVVPQGIIPSPIQKYTATNYPDAKVLKIERDKTDYEVKLSNGWELKFDSKFNLIDIDN | not soluble |
| MGSDKIHHHHHHMSAALSCGTIHGVGLGPGAPDLLSVRSDRLVRGARHVAYFRKAGRPGQARRIVEGMLRPDVIEIPMEYPVTTEIPLSDPRYNDCLSAFYAECTQRLVMLAQAGEDVVVLCEGDPFFYGSFMHLHTRLAGTVPVAVVPGITGMAGAWNATGIPITWGDDVLTIAMATLPEDELVRRIRDTDALVVMKIGRNLPKLRRAVAAAGREDAAWLVEHAAMPGQRVTRLIEAETVTPYFSILLIHGQGRRP | not soluble |
| MSLIRSMTGFGRASNDNGRLGFNVEIKSVNHRYFDLNIKLPRNLISLEEKIRKEVGNKIKRGKVDIFITQNVYDSSTTNVNLNKGLAYNYCECLKQIRDDFNVLDDISVSLISKFPDVITVTQNEEDLDEISSLLLKPINEAVDTMLSMREKEGARLKEDIEGKLTNIEELLVNVEKRAPYTVENYRNKLEERIKDLLVDNQVDEAKLAMEVTIFADKSCIDEEIVRLKSHISQFKSTLSENEPVGRKLDFIVQEMNREANTINSKSNDIDIVHCVLDIKNEIEKIREQIQNIEEGHHHHHH | soluble |
